The target in one test is T1, Galectin-3 (UniProt P17931 1-250, limits assumed).
T1 construct: Target of the anti-Gal3 antibody TB006; also called Gal3; GAL3
The test is described as follows: BLI; after -80 C for 9 months. On the technique in general: Biolayer interferometry detects binding as a change in optical thickness at a sensor tip.

The target of the next test is T2, Galectin-3 (Gal3) (UniProt P17931 1-250, limits assumed).
T2 construct: Target of TB006
As to the kind of experiment: BLI; 50 mg/mL DS after 4 C for 1 month.

The values that follow come from patent publication US20240158512A1 (TRUEBINDING, published 2024).

T2 sequence (P17931 whole entry): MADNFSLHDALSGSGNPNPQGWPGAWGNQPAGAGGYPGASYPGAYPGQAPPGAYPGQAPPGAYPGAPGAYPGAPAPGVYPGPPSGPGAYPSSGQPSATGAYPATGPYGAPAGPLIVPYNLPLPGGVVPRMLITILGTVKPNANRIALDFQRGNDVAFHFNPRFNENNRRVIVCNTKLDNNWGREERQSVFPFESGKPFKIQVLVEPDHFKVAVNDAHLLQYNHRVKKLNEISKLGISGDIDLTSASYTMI
T1 sequence (P17931 whole entry): as above

B1: TB006 (antibody, human IgG4 S228P, kappa, V domains shown)
VH: QVQLVQSGAEVKKPGASVKVSCKASGYSFTNYYMHWVRQAPGQRLEWMGWIYPGSGNTNYNEKFQGRVTITADTSASTAYMELSSLRSEDTAVYYCSTAPGGFDVWGQGTTVTVSS
VL: DIVMTQTPLSLSVTPGQPASISCKSSKSLLHSDGITYLYWYLQKPGQSPQLLIYRMSNLASGVPDRFSGSGSGTDFTLKISRVEAEDVGVYYCAQMLEFPLTFGQGTKLEIKR
notes: Tested as formulated drug substance or drug product in 20 mM L-histidine, 5 mM methionine, 100 mM NaCl, 0.02% polysorbate 80, pH 5.8, or diluted in 0.9% saline; also called 4A11.H3L1; IMT006a
On to B1, for which the Kd in the test with Galectin-3 is 2 nM.

B2: TB006 (antibody, human IgG4 S228P, kappa, V domains shown)
VH: B1 VH
VL: B1 VL
notes: Full antibody tested as drug substance (DS) in 20 mM L-histidine, 5 mM methionine, 100 mM NaCl, 0.02% polysorbate-80, pH 5.8; also called 4A11.H3L1; IMT006a
In turn, B2 displayed a Kd with Galectin-3 (Gal3) of 2.1 nM.

What is called Kd is a measure of binding affinity in units of concentration. Low values mean tighter binding, high ones weaker binding.
